Reference: a protein production outcome set (Wang et al. 2014)

Experiment: label from the status in PepcDB records

Sequence	protein production
MLTLALCIMILFTYLCMFFNFKYSAHLSIYISQVILGYVVIIIHIGEHTLPIDILVVMSLGALLLHIKHKHLMQNRMSALFLKRLYYVAFKLVVFTLACFYISLIPIGINVIFLWISAISFSALFTFICYMMCSSNFLNLNNKPDFDVILVLGAGIFTENVTPMLASRLDRALTLYVQQPNAKFIVSGGQGPDEPISEALAMKRYLIHHGVESNHIMLEDQSTSTSENIQFSKSLIESHFECVPKIVCVTSQFHIMRALRFGQKFNLKLTGVGSHTPYHFFEIALIRDFLALMYQYKLLLTVYFAALFFICIITYWFIPSIPL	failed
MKQRVITAVIALILFIPIVLAGGLWMDWLTVLFAAVGISEIFLMKKQILVSFDFLLALLATLTWTVPDSFFKVFPSNITKLGVFYGIIMLFLTWTVLSKNKTTFDDVGVYILAALYIGIGFHYMAAIRAYPQNGLALLGYVFVVVWSTDIGAYMIGRKIGKHKLWPVISPNKTWEGSIGAVICALICSAIYLAILSSFNITFGVSELSMVVLAFFLSIVGQMGDLVESAYKRFYGVKDSGKILPGHGGILDRFDSMLFVLPVVAAILGIVH	failed
MIMLNKQGITISLCMIVRDEEETIARCLETVEKIVDEIIVVDTGSVDRTKEIVEKYTSNIYDFQWIDDFAAARNFSFSKATQEYILWLDADDVLLEDAQEALKLLKRELDPKIDAVSMPYHLAMDSNGKPLYCTKRNRLVKREKQFQWFGKVHEYLAISGEVFSSNVAITHKKEKKVTNRNLKIFQNTVAAGEELSPRDLFYYANESTDNQKYDDAVLLYETFLNQDEGWYEEKIYACGKLGDCYAKLGMWEKAIESCVKSFRYDVPRGENCTRIGYIYMEQEKYNEAIFWFKLATEVPMATESPFHSPASYTWLPYLQMCICYSRLGEQDKAYYYNELAASYVPNNAAIEYNRKYFRGVFDKPYKV	failed
MILFSPVARDSAAGQAAALRAPVSLQDDTLKIFGFDDQSVGQPLSGGTDILACLTLFNEPAEAVAGTLAFLAANQDMLASRNGPIQRLEVAIVLDGRDRVHPETEALFNRLGFDLDWGCDPEAAGIGQHGADEAQVRVQTRLIPVDLLTGVSGNPLRVHLAVKDRNRGKLDSHAFFFRSLAERLQPDFVLQIDAGSRPVADCLPALLAQMEREPDCAALATNIVMEDAALTDWLQSWQQADFLWQKLSDWPIGNGLGYLEVVPGQASLLRMSALRRGANGDPLAAYLRGLSRPKSLMEANLFLAEDRIIGAEIVKSHPACTIRYHHDANLVTDGCATVGELLRQRRRWTNSTLVARLVAIGSLADLLWHGRLPPARWCSMALALAWTLLQLLEQWFIPASLALLVSLTSGFWQDEAKNGVAGQGLAWGMATGVLLFWLYCLASMKGREGERSLSRRLHGGLHGLGLGILLACTVLGFAICLVEVGPVIQGAILTVALILGMAVWHHSSRGMSDLLRVFVLYIPSAPVASFYLLSYALANFHDVSWGTKGLVGDIKAVIPAGWRRMRLRLLILWVVSNTALVWLVMGVVPGGAISVLHYACLPVVGQIAIASLLLLSASCRKPVSPSPEVTVRAGSGPHLHR	failed
MADSKSFTFELNESVLTAQVGRLDEMAMVVEQRFSELKMTIEDVGNADPGSKISESLGGLQSGLGTISSAFGQLGSSSEAITSGFGTAVGSVGGITDAFKNLGSSVQNGTLFSSLATGIGGMSTMLGGVSGGVQGITNLASGFMELKNHLGGLMSSIGGVGGIMGKLTSPMGLVIIGIVALVAAFAYLMTTNESFRNTVMSVVTQVAQLFGQLVASLMPIIMQIVTAVMQIGAALMPMVMQFISFFAQLLAQLMPFINMLISMLMPVIMQIVQVVMSLVSALLPSIMTVIQGIMSVIQFLIPIIMQIATVVVQIVVTIISYISKIMPIVMTIIGVIVSIITTIISYVVIIATTIASVIGKIISFIASVITAVIGIVQPIIAFITNIFTTIVTIIGAAFQMVFTVASKIWNSIMSTISGIIDGIKAVITGISTTVSSVFNGVKRIITGVFDGIKSAWGGLTDFVGNIFDGVSSAIQTVVDNVKGFVNVVIRGINGAIGLINKIPGVEIGKIPQLISGTTNFQGGFARMNEGGRGEMVVLPSGSQVIPHDATMKYARESARGNKSMLYTSQGADLARVENLLERLLQKNPVIKMDDKVVAEVVSRNQANSFDQYNYTMGGAAYS	not failed
